Target: human transient receptor potential cation channel, subfamily A, member 1 (hTRPA1) (human) (UniProt O75762)
Experiment: cell-based or functional assay

Chain of UniProt O75762 (O75762 whole entry): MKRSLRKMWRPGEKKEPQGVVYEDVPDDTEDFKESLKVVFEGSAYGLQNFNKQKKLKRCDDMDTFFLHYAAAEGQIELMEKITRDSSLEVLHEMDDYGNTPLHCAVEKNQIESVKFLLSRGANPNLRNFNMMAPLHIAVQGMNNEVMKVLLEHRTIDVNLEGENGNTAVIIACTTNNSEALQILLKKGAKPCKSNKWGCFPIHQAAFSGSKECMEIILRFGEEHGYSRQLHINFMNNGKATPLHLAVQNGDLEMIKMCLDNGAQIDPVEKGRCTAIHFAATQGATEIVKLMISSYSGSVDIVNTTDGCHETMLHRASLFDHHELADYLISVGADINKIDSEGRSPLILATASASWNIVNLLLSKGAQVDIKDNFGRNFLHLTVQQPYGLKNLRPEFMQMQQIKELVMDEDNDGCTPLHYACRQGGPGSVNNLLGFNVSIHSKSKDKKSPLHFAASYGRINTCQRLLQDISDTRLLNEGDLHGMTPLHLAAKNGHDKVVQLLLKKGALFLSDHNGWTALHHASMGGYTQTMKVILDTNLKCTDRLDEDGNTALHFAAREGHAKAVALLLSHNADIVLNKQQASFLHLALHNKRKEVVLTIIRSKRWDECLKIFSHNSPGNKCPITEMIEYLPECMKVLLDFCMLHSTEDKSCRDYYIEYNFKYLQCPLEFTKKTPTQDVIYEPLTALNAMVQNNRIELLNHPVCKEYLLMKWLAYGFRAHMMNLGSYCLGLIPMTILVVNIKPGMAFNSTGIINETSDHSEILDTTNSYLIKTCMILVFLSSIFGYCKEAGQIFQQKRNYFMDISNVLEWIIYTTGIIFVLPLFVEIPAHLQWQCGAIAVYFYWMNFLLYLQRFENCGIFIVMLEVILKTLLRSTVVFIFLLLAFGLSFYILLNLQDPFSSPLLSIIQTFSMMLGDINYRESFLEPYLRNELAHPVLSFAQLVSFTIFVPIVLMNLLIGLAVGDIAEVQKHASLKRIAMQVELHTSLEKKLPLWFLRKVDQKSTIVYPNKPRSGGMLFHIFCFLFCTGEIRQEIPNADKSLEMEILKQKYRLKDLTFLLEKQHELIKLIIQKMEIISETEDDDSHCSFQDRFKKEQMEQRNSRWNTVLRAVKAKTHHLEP

“rabbit metallothionein 2 A isoform containing 7 zinc atoms (rabbit Zn7-MT2A) (Bestenbalt LLC, Estonia) (from UniProt P18055 1-62) (ligand)” showed a calcium flux in HEK cells transfected to express human TRPA1 (EC50) of 0.2 µM.
